Reference: the supplement of paper PMC10567573

B1: NCK2 (parent)
chain: YVERKNSLKKGSLVKNLKDTLGLG
B2: TMEM106C (parent)
chain: TVPEILVHNIVIFMRTSVKISYIG

Variants of: B1
Assay: protein stability index of a GFP-peptide fusion (GPS, HEK-293T) (PSI 1-6); higher = more stable
Settings: c terminus: a fixed tail appended
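Note: lentivirally expressed fusions sorted by FACS into six bins by GFP to DsRed ratio, PSI derived from sequencing read proportions per bin multiplied by bin number.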

Protein stability index, by site and new letter:
L23: W 2.44 | R 2.89 | P 2.97 | M 2.7 | K 2.71
L21: K 2.32 | N 2.33 | E 2.74 | S 2.51 | D 2.81 | C 2.71 | P 2.39 | W 2.12 | R 1.98 | A 2.4 | V 2.25 | G 2.49 | Y 2.41 | M 2.64 | Q 2.3 | F 2.18 | H 2.3 | I 2.42 | T 2.44
G11: E 2.72 | T 2.06 | Y 1.59 | H 2.02 | M 1.8 | P 2.11 | Q 3.13 | D 2.44 | N 2.4 | S 2.43 | L 1.87 | R 2.32 | C 2.09 | A 2.18 | F 2.69 | K 2.9 | V 2.42 | I 1.68 | W 1.93
L13: S 2.54 | P 3.05 | Y 2.52 | M 2.22 | D 2.8 | V 2.64 | W 2.04 | C 1.97 | N 2.44 | T 2.63 | E 2.87 | I 2.13 | Q 2.64 | R 1.99 | H 2.29 | F 1.86 | K 2.38 | G 2.41 | A 3.01
K15: H 2.23 | C 2.12 | S 2.26 | G 2.49 | Y 1.91 | V 1.94 | Q 2 | W 1.98 | D 2.7 | A 2.09 | R 1.81 | N 2.41 | L 2.36 | T 2.56 | I 1.77 | F 1.69 | P 1.99 | E 2.81 | M 2.47
G22: L 1.51 | K 2.09 | T 2.37 | M 2.23 | S 2.13 | R 1.97 | Y 2.33 | D 2.21 | Q 2.31 | C 2.01 | H 2.01 | W 2.56 | F 2.86 | N 2.46 | V 1.97 | I 1.9 | P 2.44 | E 2.34
N16: W 1.68 | R 1.98 | V 1.83 | D 2.29 | M 1.3 | C 2.1 | H 2.28 | P 2.61 | A 2.33 | E 2.73 | L 2.14 | K 2.04 | F 2.69 | Q 1.97 | G 2.3 | I 2.18 | S 2.16 | Y 1.89 | T 2.41

Variants of: B2
Assay: as above
Settings: c terminus: a fixed tail appended

Protein stability index: each site, then its substitutions
I5: E 4.16 | A 2.92 | D 3.24
E4: V 3.21 | H 2.29 | Q 2.61 | N 2.99 | G 3.29 | L 3.55 | F 2.67 | M 4.55 | Y 2.81 | D 3.56 | K 2.94 | T 2.5 | S 2.88 | I 2.02
P3: K 3.27 | C 2.32 | Q 2.68 | R 3.41 | L 1.85 | G 3.81 | I 1.79 | N 1.33 | H 2.52 | A 3.18 | S 3.98
V2: P 3.94 | Y 3.53 | N 2.01 | C 2.31 | S 2.63 | I 2.67 | D 2.5 | W 2 | H 2.77 | G 2.98 | E 2.47 | K 2.81 | F 2.95 | L 3.28
T1: M 3.02 | D 1.51 | E 2.4 | L 2.03 | I 4.36 | S 3.42 | W 2.7
